System: MS2 coat protein
Test: apparent KD of MS2 coat protein; designed switch direction (-1 OFF switch, 1 ON switch): -1; higher = weaker reporter binding
Summary of the method: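 RNA switches sharing common flanks were transcribed by stalled E. coli RNA polymerase on Illumina chips. A doubling series of SNAP-549-labelled MS2 coat protein, from 0.7 or 1.5 nM to 3 µM, was applied in Tris-HCl pH 7.5 buffer with KCl, MgCl2, BSA, DTT, tRNA and Tween-20. Each step lasted 0.8–1.5 h at the bottom of the series and 10–20 min at the top. Normalised cluster fluorescence was curve-fitted, giving apparent KD as the per-design median over clusters.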

[1] = input ligand: microRNA oligo, concentration not stated
[2] = Eterna round: R95, input ligand: microRNA oligo, concentration not stated
[3] = Eterna round: R95, input ligand: FMN 200 uM
[4] = Eterna round: R95, input ligand: none

Sequence | apparent KD of MS2 coat protein (input ligand: FMN 200 uM) | apparent KD of MS2 coat protein (input ligand: none) | apparent KD of MS2 coat protein [2] | other results
CUUGUUUAUGUAGGAUAUGCCUGGCGUGCCUUUGCAGAAGGACAUGAGGAUCACCCAUGUAUUGCGGUCUGCGUUCAGAUCGCU [salish99_ExNG1_r4_044] (Eterna round: R96, puzzle: Exclusion NG 1) | 41.1 nM | 36.6 nM | – | apparent KD of MS2 coat protein [1]: 28.8 nM
CUUUAACAAGCGAGAUCCAACAUGAGGAUCACCCAUGUGCAUCCACGAUUAGUGGGUGCGAAAGCUCGUCUUAUAUG [v1] (Eterna round: R97, puzzle: Sensor, turn-off variant 1) | 20.9 nM | 21.6 nM | – | –
CUUUGGUCAGGAUAUGGUGGGCUGGUCGCGCGGCCGGGUGGCCAGAAGGGACAUGAGGAUCACCCAUGUACGGC [excls4-X] (Eterna round: R96, puzzle: Exclusion 4) | 106 nM | 84.3 nM | – | apparent KD of MS2 coat protein [1]: 53 nM
CUUUUGUGAGGAUAUCAGUAGUAAAAAAAUAAAAUUACUAUUGAGAAGGCACAUGAGGAUCACCCAUGUUCCUC [salish99_ex4_r3_029] (puzzle: Exclusion 4) | – | – | 36.4 nM | –
CUUUUGUGAGGAUAUCAGUAGUAAAAAUAUAAAAUUACUACUGAGAAGGCACAUGAGGAUCACCCAUGUUCCUC [salish99_ex4_r3_020] (puzzle: Exclusion 4) | – | – | 37.2 nM | –
CUUUUGUGAGGAUAUCAGUAGUAAAAGAAUAAAAUUACUACUGAGAAGGCACAUGAGGAUCACCCAUGUUCCUC [Mat - Exclusion 4 - Mod of Salish - D61] (puzzle: Exclusion 4) | – | – | 36.7 nM | –
CUUUUGUGAGGAUAUUAGUAGUAAAAAAAUAAAAUUACUACUGAGAAGGCACAUGAGGAUCACCCAUGUUCUUC [salish99_ex4_r3_038] (puzzle: Exclusion 4) | – | – | 17.5 nM | –
CUUUUGUGAGGAUAUUAGUAGUAAAUAAAUUAAAUUACUACUGAGAAGGCACAUGAGGAUCACCCAUGUUCCUC [salish99_ex4_r3_057] (Eterna round: R96, puzzle: Exclusion 4) | 428 nM | 36.6 nM | – | apparent KD of MS2 coat protein [1]: 32.8 nM
CUUUUGUGAGGAUAUUAGUAGUAAAUAAAUUAAAUUACUACUGAGAAGGCACAUGAGGAUCACCCAUGUUCCUC [salish99_ex4_r3_057] (puzzle: Exclusion 4) | – | – | 32 nM | –
CUUUUGUGAGGAUAUUAGUAUUAAAUAAAUAAAAUUACUACUGAGAAGGCACAUGAGGAUCACCCAUGUUCCUC [salish99_ex4_r3_050] (puzzle: Exclusion 4) | – | – | 33.6 nM | –
GAAAACCUAGGAUAUACAUGAGGAUCACCCAUGUGAAAACCUCUUAAAACUUAACAAUGUAGAAGGAGGAAAAC [Azaqure] (puzzle: Exclusion 3) | – | – | 43.2 nM | apparent KD of MS2 coat protein [3]: 39.9 nM; apparent KD of MS2 coat protein [4]: 38.3 nM
GAAAACGCAGAGGAUAUUUCAGAUCAAAGCUGCAAAGAAGGCUGCACAUGAGGAUCACCCAUGUGGUCUUUAAA [Mod of Quesina - Jieux - Exclusion 6] (Eterna round: R97, puzzle: Exclusion 6) | 286 nM | 20.7 nM | – | –
GAAAACGCAGAGGAUAUUUCAGAUCAAAGCUGCAAAGAAGGCUGCACAUGAGGAUCACCCAUGUGGUCUUUAAA [Quesina] (Eterna round: R96, puzzle: Exclusion 6) | – | – | – | apparent KD of MS2 coat protein [1]: 16 nM
GAAAACGCAGAGGAUAUUUCAGAUCAAAGCUGCAAAGAAGGCUGCACAUGAGGAUCACCCAUGUGGUCUUUAAA [Quesina] (puzzle: Exclusion 6) | – | – | 17.8 nM | apparent KD of MS2 coat protein [3]: 167 nM; apparent KD of MS2 coat protein [4]: 16.4 nM
GAAAAGGUAGGAUAUACGAAAAAAAAGGGUAGAAAUAAAACACAUGAGGAUCACCCAUGUAGAAGGACCAAAAG [salish99_ex2_r3_076] (puzzle: Exclusion 2) | – | – | 20.9 nM | apparent KD of MS2 coat protein [3]: 74.5 nM; apparent KD of MS2 coat protein [4]: 15.5 nM
GAAAAGGUAGGAUAUACGAAAAAAAAUGGUAGAAAAAAAACACAUGAGGAUCACCCAUGUAGAAGGACCAAAAG [salish99_ex2_r3_071] (puzzle: Exclusion 2) | – | – | 24.6 nM | apparent KD of MS2 coat protein [3]: 23 nM; apparent KD of MS2 coat protein [4]: 17.9 nM
GAAAAUGUGGAGGAUAUCGACUUCGAAAGAAGUCGAGAAGGCCACACAUGAGGAUCACCCAUGUGAUGCCUAUA [Omei Ex6 H8] (Eterna round: R97, puzzle: Exclusion 6) | 774 nM | 230 nM | – | –
GAAACGCGAGGAUAUACAGACGAGUCCAUUACGUGUCUCGGACUUGAGGAUCACCCAAGUAGAAGGCGUCUCAG [salish99_ex2_r4_631] (Eterna round: R97, puzzle: Exclusion 2) | 24.8 nM | 27.6 nM | – | –

Sequence | apparent KD of MS2 coat protein (input ligand: FMN 200 uM) | apparent KD of MS2 coat protein (input ligand: none) | apparent KD of MS2 coat protein [2] | other results
GAAAUACAUGAGGAUCACCCAUGUAAGGAUAUGCUAGCGGUCGGCUGACUGACUGCUAGCAGAAGGUACAUGAU [Mat - Mod of JL D81] (puzzle: Exclusion 1) | – | – | 67.5 nM | –
GAACUGAAGCAAAGCUUUAGUCGUACAUGAGGAUCACCCAUGUAGGAUAUGGUAGGCAAAGCUUACUAGAAGGACAGAGUGAUC [Mat - Exclusion NG 3 - Mod of JL - D70] (Eterna round: R96, puzzle: Exclusion NG 3) | 338 nM | 336 nM | – | apparent KD of MS2 coat protein [1]: 336 nM
GAAGAAGAGAGAAUAGAAAACAUGAGGAUCACCCAUGUGAGAAGAUGAGGGUGUAGCAGGCUUUUUGCUCGUCUUAU (puzzle: Sensor v3, turn-off variant 1) | – | – | 119 nM | apparent KD of MS2 coat protein [3]: 32.5 nM; apparent KD of MS2 coat protein [4]: 31.2 nM
GAAUAGAGAGGAUAUGCGAAGUAGGUAGUACGAUAUAUCUGACAUGAGGAUCACCCAUGUAGAAGGCUCAGAUC [EX2 #5] (Eterna round: R97, puzzle: Exclusion 2) | 34.4 nM | 40.3 nM | – | –
GAAUAGGCAGGAUAUACAUGAGGAUCACCCAUGUGCUUGCGCUAGGCACGUGAACAACGUAGAAGGGCCUAGAC [ChP 13.04.2015 #11] (puzzle: Exclusion 3) | – | – | 12.1 nM | –
GACAGACGAGCGUGAGCCGACAUGAGGAUCACCCAUGUGCUCGUCUUAUAACGUACUGUCACGUUAGUGAUAGUGCG [Sensor v3, turn-off variant 1 (MOD of Eli's v1-13 v.4)] (puzzle: Sensor v3, turn-off variant 1) | – | – | 42.7 nM | apparent KD of MS2 coat protein [3]: 54.3 nM; apparent KD of MS2 coat protein [4]: 56.7 nM
GACAGUCGAGGAUAUACGAUCGUGCUUCGGCACGUAAGAUCACAUGAGGAUCACCCAUGUAGAAGGCGACUGUC [Mod 6 - Jieux - Exclusion 2] (Eterna round: R97, puzzle: Exclusion 2) | 234 nM | 31.7 nM | – | –
GACAGUUCGGAGGAUAUCCAGAACUAAGAACAAGGAGAAGGCCGAACAUGAGGAUCACCCAUGUGUGUUCCCAU [Isdiorzaar] (puzzle: Exclusion 6) | – | – | 30.7 nM | apparent KD of MS2 coat protein [3]: 19.4 nM; apparent KD of MS2 coat protein [4]: 27 nM
GACAUCGCAGGAUAUUAGGGUUUGUACAUGAGGAUCACCCAUGUUAAUUGGGUUAAUGUUUAAGAAGGGCGGUGUC [JR_EX5_Sub017] (Eterna round: R97, puzzle: Exclusion 5) | 528 nM | 383 nM | – | –
GACAUGAGGAUCACCCAUGUAACCUCAUGUAGGAAGGAGAGUAAGGAUAUACAUGAAGGAAUGAAGUAGAAGGUGCAUAGAGAG [Default title] (Eterna round: R96, puzzle: Exclusion NG 3) | 605 nM | 586 nM | – | apparent KD of MS2 coat protein [1]: 377 nM
GACCAGGCAGGAUAUACAUGAGGAUCACCCAUGUGUCUGCGUUGGGCACGUGAACACGGUAGAAGGGCCUUGAC [ChP 13.04.2015 #15] (puzzle: Exclusion 3) | – | – | 12.8 nM | –
GACCAGGUAGGAUAUGCUGGGUCGGACUUGAGGAUCACCCAAGUGGCCAAAGUGCGUCCCGCAGAAGGGCCGAAAA [Inanorxeti] (Eterna round: R97, puzzle: Exclusion 5) | 81.6 nM | 827 nM | – | –
GACGACUCGUCAGGAUAUGUAAACGAGCAAUUGACAGAAGGGACACUGUCGAGGGUACACAUGAGGAUCACCCAUGUACUCGUC [Eternabot solution 40] (Eterna round: R96, puzzle: Exclusion NG 1) | 12.4 nM | 16.1 nM | – | apparent KD of MS2 coat protein [1]: 10.3 nM
GACGAGGGAGGAUAUGCACGAGGGAUAUCUGACAUGCCUAUACAUGAGGAUCACCCAUGUAGAAGGCCCAGAUA [Veorleerma] (puzzle: Exclusion 2) | – | – | 11.9 nM | –
GACGUGUAAGGAUAUGAUGUUGCAAACAAGACCCUUAAUCAUUAGAAGGUACAUGAGGAUCACCCAUGUAGGGU [Eternabot (L2) Solution 100] (Eterna round: R97, puzzle: Exclusion 4) | 129 nM | 140 nM | – | –
GACUAAACACGAGGAUAUGCCUGGGAAGAACAGGCAGAAGGCGUGACAUGAGGAUCACCCAUGUAGCCGGGCUAUUCUCGUGUG [Orlaes] (Eterna round: R96, puzzle: Exclusion NG 1) | 35.4 nM | 29.3 nM | – | apparent KD of MS2 coat protein [1]: 20.8 nM
GACUGCUGAGGAUAUACAUGAGGAUCACCCAUGUGCUUCAGCUAGGAGACUAGCAUUGGUAGAAGGUAGUAGUC [LRO-Excl3-03] (puzzle: Exclusion 3) | – | – | 10.3 nM | –
GACUUCUGAGGAUAUACAUAGAUUUACAUGAGGAUCACCCAUGUUCCUCUAUGUAUAAAUGUAGAAGGCAGAAGAG [Mat - Exclusion 5 - JL Mod - D65] (Eterna round: R97, puzzle: Exclusion 5) | 70.7 nM | 19.7 nM | – | –
